Source: patent publication EP1230350B1, “SITE-DIRECTED MUTAGENESIS OF ESCHERICHIA COLI PHYTASE” (CORNELL RESEARCH FOUNDATION, INC., priority 1999, dated 2001)
Marks after values point to notes of the source that are not given here.

What was measured:
Assay in all cases: Enzyme kinetics of acid phosphatase/phytase (pNPP and sodium phytate as substrates)
[1] = target: T1, Escherichia coli acid phosphatase/phytase (appA) Mutant U (construct E2P2P3K2: C200N, D207N, S211N), SEQ. ID. No. 3, expressed in Pichia pastoris (Escherichia coli, UniProt P07102, C200N/D207N/S211N); type: biochemical
T1 construct: The coding region starts at the codon 20 and ends at the codon 432; alpha-factor secretion leader of vector pPICZαA (own knowledge of the vector); made in house; host or cells: Pichia pastoris X33
T1 sequence (P07102 20-432 C200N/D207N/S211N): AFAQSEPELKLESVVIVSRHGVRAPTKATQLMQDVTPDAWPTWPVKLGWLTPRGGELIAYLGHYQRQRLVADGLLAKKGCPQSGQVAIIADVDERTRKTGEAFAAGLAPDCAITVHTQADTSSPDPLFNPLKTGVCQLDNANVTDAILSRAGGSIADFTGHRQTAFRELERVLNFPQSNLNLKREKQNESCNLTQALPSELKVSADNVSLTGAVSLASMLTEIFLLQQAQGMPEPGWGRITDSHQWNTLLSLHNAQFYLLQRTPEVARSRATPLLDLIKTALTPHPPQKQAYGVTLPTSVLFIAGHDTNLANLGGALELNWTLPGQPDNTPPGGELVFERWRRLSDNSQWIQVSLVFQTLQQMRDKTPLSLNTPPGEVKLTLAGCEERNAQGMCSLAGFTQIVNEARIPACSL
Description: The expressed r-AppA and mutant enzymes in the medium supernatant were subjected to a two-step ammonium sulfate precipitation (25% and 75%) as previously described (Rodriguez, E. et al., Biochem. Biophys. Res. Commun. 257:117-23 (1999)). The suspension of the first round was centrifuged at 4°C, 25,000 x g for 20 min. The pellet of the second round was suspended in 10 ml and dialyzed overnight against 25 mM Tris-HCl, pH 7. After dialysis, the protein extract was loaded onto a DEAE (diethylaminoethyl)-Sepharose column (Sigma, St. Louis, MO) equilibrated with 25 mM Tris-HCl, pH 7. The bound protein was eluted with 1 M NaCl in 25 mM Tris-CH1, pH 7. […] Phytase activity was measured using sodium phytate as the substrate (Rodriguez, E. et al., Biochem. Biophys. Res. Commun. 257:117-23 (1999); Piddington, C.S. et al., Gene 133:55-62 (1993)). […] Free inorganic phosphorus was measured at 820 nm after 0.2 ml of the sample was mixed with 1.8 ml of H2O and 2 ml of a solution containing 0.6 M H2SO4, 2% ascorbic acid, and 0.5% ammonium molybdate, followed by incubation for 20 min at 50°C. […] The released p-nitrophenol was measured at 405 nm after 0.1 ml of the sample was mixed with 0.9 ml of 1 M NaOH and incubated for 10 min. […] After the samples were cooled on ice for 30 min, their remaining phytase activies were measured as described above. […]

[2] = substrate: O=P(O)(O)OC1C(OP(=O)(O)O)C(OP(=O)(O)O)C(OP(=O)(O)O)C(OP(=O)(O)O)C1OP(=O)(O)O; type: biochemical, Escherichia coli; details: 0.25 M glycine-HCl, pH 2.5, 37°C, Lineweaver-Burk plot
Description: (§1) The expressed r-AppA and mutant enzymes in the medium supernatant were subjected to a two-step ammonium sulfate precipitation (25% and 75%) as previously described (Rodriguez, E. et al., Biochem. Biophys. Res. Commun. 257:117-23 (1999)). The suspension of the first round was centrifuged at 4°C, 25,000 x g for 20 min. The pellet of the second round was suspended in 10 ml and dialyzed overnight against 25 mM Tris-HCl, pH 7. After dialysis, the protein extract was loaded onto a DEAE (diethylaminoethyl)-Sepharose column (Sigma, St. Louis, MO) equilibrated with 25 mM Tris-HCl, pH 7. The bound protein was eluted with 1 M NaCl in 25 mM Tris-CH1, pH 7. […] Phytase activity was measured using sodium phytate as the substrate (Rodriguez, E. et al., Biochem. Biophys. Res. Commun. 257:117-23 (1999); Piddington, C.S. et al., Gene 133:55-62 (1993)). The enzyme was diluted in 0.25 M glycine-HCl, pH 2.5, and an equal volume of substrate solution containing 11 mM sodium phytate (Sigma) was added. After incubation of the sample for 15 min at 37°C, the reaction was stopped by addition of an equal volume of 15% trichloroacetic acid. Free inorganic phosphorus was measured at 820 nm after 0.2 ml of the sample was mixed with 1.8 ml of H2O and 2 ml of a solution containing 0.6 M H2SO4, 2% ascorbic acid, and 0.5% ammonium molybdate, followed by incubation for 20 min at 50°C. One phytase unit was defined as the amount of activity that releases 1 µmol of inorganic phosphorus from sodium phytate per minute at 37°C. The final concentrations of sodium phytate used for the enzyme kinetics were: 0.1, 0.25, 0.5, 0.75, 1, 2.5, 10, and 25 mM. Acid phosphatase activity was assayed using pNPP (Sigma) at a final concentration of 25 mM (Smith, R. et al., Protein Engineerine 5:35-41 (1992)). To 50 µl of enzyme (40 nmol), 850 µl of 250 mM glycine-HCl, pH 2.5, were added. After 5 min of incubation at 37°C, 100 µl of pNPP was added. The released p-nitrophenol was measured at 405 nm after 0.1 ml of the sample was mixed with 0.9 ml of 1 M NaOH and incubated for 10 min. The final concentrations ofpNPP used for the enzyme kinetics were: 0.1, 0.2, 0.75, 1, 2.5, 10, and 25 mM. One unit of acid phosphatase/phytase activity was defined as the amount of enzyme catalyzing the formation of 1 µmol of p-nitrophenol per minute. Before the thermostability assay, the enzyme (2 mg/ml) was diluted 1:400 in 0.2 M glycine-HCl, pH 2.5. The diluted samples were incubated for 15 min at 25, 55, 80, and 90°C. After the samples were cooled on ice for 30 min, their remaining phytase activies were measured as described above. Deglycosylation of purified enzymes was done by incubating 100 µg of total protein with 0.5 IU endoglycosidase Hf (Endo Hf) for 4 h at 37°C according to the manufacturer's instructions (New England Biolabs, Beverly, MA). Sodium dodecyl sulfate-polyacrylamide gel electrophoresis (SDS-PAGE), 15% (w/v) gel was performed as previously described (Laenunli, U.K., Nature 227:680-85 (1970)). Protein concentrations were determined using the Lowry method (Lowry, O.H. et al., J. Biol. Chem. 193:265-75 (1951)).
(§2) The Km value for pNPP (p-nitrophenyl phosphate) was reduced by one-half and the one for sodium phytate by 70% with Mutant U, versus r-AppA (P < 0.05) (Table 4).

[3] = substrate: O=[N+]([O-])c1ccc(OP(=O)(O)O)cc1; type: biochemical, Escherichia coli; details: 0.25 M glycine-HCl, pH 2.5, 37°C, Lineweaver-Burk plot
Description: as §1, §2

O=P(O)(O)O[C@H]1[C@H](OP(=O)(O)O)[C@@H](OP(=O)(O)O)[C@H](OP(=O)(O)O)[C@@H](OP(=O)(O)O)[C@H]1OP(=O)(O)O [Na-Phytate, sodium phytate]
increase in apparent catalytic efficiency kcat/Km for sodium phytate than that of r-AppA ([1]; Mutant U versus r-AppA): 5.2 fold
Km value for sodium phytate reduced, versus r-AppA ([1]; Mutant U versus r-AppA (P < 0.05)): 70%

B1: Escherichia coli acid phosphatase/phytase (appA) Mutant Y (construct E2A1P2P3K2: A131N, V134N, C200N, D207N, S211N), expressed in Pichia pastoris (Escherichia … (protein)
chain: AFAQSEPELKLESVVIVSRHGVRAPTKATQLMQDVTPDAWPTWPVKLGWLTPRGGELIAYLGHYQRQRLVADGLLAKKGCPQSGQVAIIADVDERTRKTGEAFAAGLAPDCNITNHTQADTSSPDPLFNPLKTGVCQLDNANVTDAILSRAGGSIADFTGHRQTAFRELERVLNFPQSNLNLKREKQNESCNLTQALPSELKVSADNVSLTGAVSLASMLTEIFLLQQAQGMPEPGWGRITDSHQWNTLLSLHNAQFYLLQRTPEVARSRATPLLDLIKTALTPHPPQKQAYGVTLPTSVLFIAGHDTNLANLGGALELNWTLPGQPDNTPPGGELVFERWRRLSDNSQWIQVSLVFQTLQQMRDKTPLSLNTPPGEVKLTLAGCEERNAQGMCSLAGFTQIVNEARIPACSL
notes: The coding region starts at the codon 20 and ends at the codon 432; alpha-factor secretion leader of vector pPICZαA (own knowledge of the vector); made in house; host or cells: Pichia pastoris X33
Km ([2]; other: Mutant Y): 2030 ± 190 µM
kcat ([2]; other: Mutant Y): 3431 ± 41^* min^-1
kcat/Km ([2]; other: Mutant Y): (1.69 ± 0.21) x 10^6* min^-1 M^-1
Km ([3]; other: Mutant Y): 3180 ± 390 µM
kcat ([3]; other: Mutant Y): 787 ± 6.7 min⁻¹
kcat/Km ([3]; other: Mutant Y): (2.5 ± 0.17) x 10^5 min^-1 M^-1

B2: Escherichia coli acid phosphatase/phytase (appA) Mutant U (construct E2P2P3K2: C200N, D207N, S211N), SEQ. ID. No. 3, expressed in Pichia pastoris (Escherichia … (protein)
chain: AFAQSEPELKLESVVIVSRHGVRAPTKATQLMQDVTPDAWPTWPVKLGWLTPRGGELIAYLGHYQRQRLVADGLLAKKGCPQSGQVAIIADVDERTRKTGEAFAAGLAPDCAITVHTQADTSSPDPLFNPLKTGVCQLDNANVTDAILSRAGGSIADFTGHRQTAFRELERVLNFPQSNLNLKREKQNESCNLTQALPSELKVSADNVSLTGAVSLASMLTEIFLLQQAQGMPEPGWGRITDSHQWNTLLSLHNAQFYLLQRTPEVARSRATPLLDLIKTALTPHPPQKQAYGVTLPTSVLFIAGHDTNLANLGGALELNWTLPGQPDNTPPGGELVFERWRRLSDNSQWIQVSLVFQTLQQMRDKTPLSLNTPPGEVKLTLAGCEERNAQGMCSLAGFTQIVNEARIPACSL
notes: as for B1
Km ([2]; other: Mutant U): 580 ± 80 µM
kcat ([2]; other: Mutant U): 4003 ± 56^* min^-1
kcat/Km ([2]; other: Mutant U): (6.90 ± 0.70) x 10^6* min^-1 M^-1
Km ([3]; other: Mutant U): 1860 ± 35000 µM
kcat ([3]; other: Mutant U): 1073 ± 13^* min^-1
kcat/Km ([3]; other: Mutant U): (5.8 ± 0.37) x 10^5* min^-1 M^-1

B3: Escherichia coli acid phosphatase/phytase (appA), wild type r-AppA, SEQ. ID. No. 1, expressed in Pichia pastoris (Escherichia coli K-12) (protein)
chain: AFAQSEPELKLESVVIVSRHGVRAPTKATQLMQDVTPDAWPTWPVKLGWLTPRGGELIAYLGHYQRQRLVADGLLAKKGCPQSGQVAIIADVDERTRKTGEAFAAGLAPDCAITVHTQADTSSPDPLFNPLKTGVCQLDNANVTDAILSRAGGSIADFTGHRQTAFRELERVLNFPQSNLCLKREKQDESCSLTQALPSELKVSADNVSLTGAVSLASMLTEIFLLQQAQGMPEPGWGRITDSHQWNTLLSLHNAQFYLLQRTPEVARSRATPLLDLIKTALTPHPPQKQAYGVTLPTSVLFIAGHDTNLANLGGALELNWTLPGQPDNTPPGGELVFERWRRLSDNSQWIQVSLVFQTLQQMRDKTPLSLNTPPGEVKLTLAGCEERNAQGMCSLAGFTQIVNEARIPACSL
notes: as for B1
Km ([2]; other: r-AppA): 1950 ± 250 µM
kcat ([2]; other: r-AppA): 2148 ± 33 min⁻¹
kcat/Km ([2]; other: r-AppA): (1.11 ± 0.13) x 10^6 min^-1 M^-1
Km ([3]; other: r-AppA): 3660 ± 440 µM
kcat ([3]; other: r-AppA): 752 ± 7.9 min⁻¹
kcat/Km ([3]; other: r-AppA): (2.0 ± 0.18) x 10^5 min^-1 M^-1

B4: Escherichia coli acid phosphatase/phytase (appA) Mutant R (construct E2A1P3K2: A131N, V134N, D207N, S211N), expressed in Pichia pastoris (Escherichia coli … (protein)
chain: AFAQSEPELKLESVVIVSRHGVRAPTKATQLMQDVTPDAWPTWPVKLGWLTPRGGELIAYLGHYQRQRLVADGLLAKKGCPQSGQVAIIADVDERTRKTGEAFAAGLAPDCNITNHTQADTSSPDPLFNPLKTGVCQLDNANVTDAILSRAGGSIADFTGHRQTAFRELERVLNFPQSNLCLKREKQNESCNLTQALPSELKVSADNVSLTGAVSLASMLTEIFLLQQAQGMPEPGWGRITDSHQWNTLLSLHNAQFYLLQRTPEVARSRATPLLDLIKTALTPHPPQKQAYGVTLPTSVLFIAGHDTNLANLGGALELNWTLPGQPDNTPPGGELVFERWRRLSDNSQWIQVSLVFQTLQQMRDKTPLSLNTPPGEVKLTLAGCEERNAQGMCSLAGFTQIVNEARIPACSL
notes: as for B1
Km ([2]; other: Mutant R): 3070 ± 260 µM
kcat ([2]; other: Mutant R): 1657 ± 23^* min^-1
kcat/Km ([2]; other: Mutant R): (0.54 ± 0.09) x 10^6* min^-1 M^-1
Km ([3]; other: Mutant R): 7870 ± 840 µM
kcat ([3]; other: Mutant R): 390 ± 5.9^* min^-1
kcat/Km ([3]; other: Mutant R): (0.5 ± 0.07) x 10^5* min^-1 M^-1
